Experimental findings from paper doi:10.1101/2020.02.24.962464, “Kinetics characterization of ASXL1/2-mediated allosteric regulation of BAP1 deubiquitinase” (bioRxiv, 2020) are described below.

Values joined by “and” are separate entries in the source; they are usually repeats but may differ in a detail not shown here. Equal values may be shown once.

B1: His-ULD/AB protein complex (pETDuet-1-His-BAP1-ULD+ASXL2-AB) (complex, human)
chain 1: KEVVEATDSREKTGMVRPGEPLSGEKYSPKELLALLKCVEAEIANYEACLKEEVEKRKKFKIDDQRRTHNYDEFICTFISMLAQEGMLANLVEQNISVRRRQGVSIGRLHKQRKPDRRKRSRPYKAKRQ
chain 2: MKRTKCADIDVETPDSILVNTNLRALINKHTFSVLPGDCQQRLLLLLPEVDRQVGPDGLMKLNGSALNNEFFTSAAQGWKERLSEGEFTPEMQVRIRQEIEKEKKVEPWKEQFFESYYGQS
notes: BAP1, human, ULD domain; ASXL2, human, AB box; Complex formed beforehand by co-expression; used as one analyte in pull-down, SPR and Ub-AMC assays; also called ULD/AB complex; Duet-His-ULD/AB; source: E. coli Rosetta 2 (DE3) pLysS, co-expressed from pETDuet-1, purified (cobalt beads, Talon, native conditions)
B2: His-ASXL2-AB (261-381 aa) (domain or fragment, human, UniProt Q76L83 261-381, looked up)
chain: MKRTKCADIDVETPDSILVNTNLRALINKHTFSVLPGDCQQRLLLLLPEVDRQVGPDGLMKLNGSALNNEFFTSAAQGWKERLSEGEFTPEMQVRIRQEIEKEKKVEPWKEQFFESYYGQS
notes: ASXL2, human, AB box, residues 261-381 (pQE30-ASXL2-AB); also called His-AB; AB box
B3: His-BAP1-ULD (601-729 aa) (domain or fragment, human, UniProt Q92560 601-729, looked up)
chain: KEVVEATDSREKTGMVRPGEPLSGEKYSPKELLALLKCVEAEIANYEACLKEEVEKRKKFKIDDQRRTHNYDEFICTFISMLAQEGMLANLVEQNISVRRRQGVSIGRLHKQRKPDRRKRSRPYKAKRQ
notes: BAP1, human, UCH37-like domain (ULD), residues 601-729 (pQE30-BAP1-ULD); also called His-ULD; ULD domain

Experiment [1] addresses T1, full-length His-BAP1 (Bv-His-BAP1-FL-WT) (human, UniProt Q92560 1-729).
T1 sequence (looked up): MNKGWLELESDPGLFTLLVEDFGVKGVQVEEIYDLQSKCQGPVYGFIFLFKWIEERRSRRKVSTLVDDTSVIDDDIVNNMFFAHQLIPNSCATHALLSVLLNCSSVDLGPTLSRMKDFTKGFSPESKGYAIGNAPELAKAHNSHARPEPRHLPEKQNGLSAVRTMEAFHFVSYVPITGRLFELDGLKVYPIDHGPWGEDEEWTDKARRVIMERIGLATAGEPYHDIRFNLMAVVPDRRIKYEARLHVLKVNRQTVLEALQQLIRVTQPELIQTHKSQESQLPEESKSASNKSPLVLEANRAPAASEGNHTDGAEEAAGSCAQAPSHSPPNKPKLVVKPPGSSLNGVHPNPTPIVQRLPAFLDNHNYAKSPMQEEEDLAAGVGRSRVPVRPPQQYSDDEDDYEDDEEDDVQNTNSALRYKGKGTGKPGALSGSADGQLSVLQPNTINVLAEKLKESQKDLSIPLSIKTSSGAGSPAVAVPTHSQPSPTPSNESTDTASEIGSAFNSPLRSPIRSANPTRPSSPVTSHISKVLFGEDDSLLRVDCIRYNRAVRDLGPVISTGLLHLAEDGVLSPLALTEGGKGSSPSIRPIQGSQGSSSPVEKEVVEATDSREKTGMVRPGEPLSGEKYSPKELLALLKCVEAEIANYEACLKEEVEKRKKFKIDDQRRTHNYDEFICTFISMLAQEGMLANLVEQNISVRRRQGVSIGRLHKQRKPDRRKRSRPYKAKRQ
In words: cell-based or functional assay.

Experiment [2] addresses T2, full-length His-BAP1 (Bv-His-BAP1-FL-WT) (human, UniProt Q92560 1-729).
T2 chain: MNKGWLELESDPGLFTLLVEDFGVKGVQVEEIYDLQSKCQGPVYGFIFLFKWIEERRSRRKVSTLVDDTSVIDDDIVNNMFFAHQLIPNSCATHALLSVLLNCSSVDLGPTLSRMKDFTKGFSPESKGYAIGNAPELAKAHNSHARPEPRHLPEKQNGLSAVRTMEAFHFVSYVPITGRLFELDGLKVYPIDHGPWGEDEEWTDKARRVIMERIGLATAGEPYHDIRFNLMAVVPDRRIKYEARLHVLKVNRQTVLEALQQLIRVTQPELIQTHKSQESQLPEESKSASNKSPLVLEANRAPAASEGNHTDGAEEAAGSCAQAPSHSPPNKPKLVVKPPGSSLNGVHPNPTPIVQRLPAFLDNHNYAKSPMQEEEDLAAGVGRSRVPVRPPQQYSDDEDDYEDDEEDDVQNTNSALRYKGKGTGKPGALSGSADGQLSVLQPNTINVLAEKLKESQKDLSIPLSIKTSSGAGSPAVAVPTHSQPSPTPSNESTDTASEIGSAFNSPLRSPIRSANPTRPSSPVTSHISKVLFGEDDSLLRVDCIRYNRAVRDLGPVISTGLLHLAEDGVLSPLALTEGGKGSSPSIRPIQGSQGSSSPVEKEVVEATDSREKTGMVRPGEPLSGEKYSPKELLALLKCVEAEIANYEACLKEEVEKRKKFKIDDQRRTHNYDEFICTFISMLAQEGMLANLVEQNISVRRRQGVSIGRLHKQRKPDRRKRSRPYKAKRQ
Briefly: SPR; steady-state equilibrium. For orientation: In SPR one partner is held on a chip, and binding of the other changes the refractive index at the surface.

Experiment [3] addresses T1, full-length His-BAP1 (Bv-His-BAP1-FL-WT). Briefly: SPR; Biacore T200; full-length His-BAP1, GST-UCH or GST alone amine-coupled to a CM5 chip (~3000 RU), His-ULD/AB complex injected; 25 mM HEPES pH 7.4, 250 mM NaCl, 5 mM DTT, 0.05% Tween20; steady-state and kinetic one-site fits. Conditions: both partners purified.
The target in experiment [4] is B3. Briefly: ITC; Microcal ITC 200; His-AB 77 µM in the cell, His-ULD 574 µM titrated; 50 mM potassium phosphate pH 7.5, 200 mM potassium chloride, 1 mM TCEP; duplicate. The settings on record: both partners purified. For orientation: Isothermal titration calorimetry measures the heat released or taken up as one component is titrated into another.
Another experiment has as its target T3, GST-BAP1-ULD (human, UniProt Q92560 601-729).
T3 construct: BAP1, human, ULD domain; also called GST-ULD; pGEX-4T-1-BAP1-ULD; source: E. coli BL21 (DE3), purified (GST resin, native conditions)
T3 sequence (looked up): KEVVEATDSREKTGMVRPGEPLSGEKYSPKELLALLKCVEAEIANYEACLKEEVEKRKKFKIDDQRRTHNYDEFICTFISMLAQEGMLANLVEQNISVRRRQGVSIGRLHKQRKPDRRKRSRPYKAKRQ
Briefly: SPR; Biacore T200; GST-ULD captured by anti-GST antibody on a CM5 chip (400 RU), His-AB injected; 25 mM HEPES pH 7.4, 150 mM NaCl, 5 mM DTT, 0.05% Tween20; steady-state and kinetic one-site fits. Conditions: both partners purified.

Experiment [5] deals with B2. Briefly: ITC; Microcal ITC 200; His-AB 77 µM in the cell, His-ULD 574 µM titrated; 50 mM potassium phosphate pH 7.5, 200 mM potassium chloride, 1 mM TCEP; duplicate. The settings on record: both partners purified.
For experiment [6], the target named is B1. Briefly: SPR; Biacore T200; full-length His-BAP1, GST-UCH or GST alone amine-coupled to a CM5 chip (~3000 RU), His-ULD/AB complex injected; 25 mM HEPES pH 7.4, 250 mM NaCl, 5 mM DTT, 0.05% Tween20; steady-state and kinetic one-site fits. The settings on record: both partners purified.

Take B1: the “fold increase of BAP1 specific activity (100 nM Ub-AMC) with increasing concentrations of His-ULD/AB” value in experiment [1] came out at 4.5 fold. The molecule further came in with a Kd in experiment [2] of 740 nM. In addition, in experiment [3], the Kd is 850 nM and 1910 nM; the koff amounted to 0.033 s⁻¹; the kon stood at 39000 M⁻¹ s⁻¹.

As for B2, the “fold increase of the maximal velocity of BAP1 cleavage of Ub-AMC with increasing concentrations of ASXL2-AB” value in experiment [1] is 2.5 fold. Moreover, the Kd in experiment [4] is around 4260 nM. For the same molecule, in the experiment with GST-BAP1-ULD, the Kd was 134 nM and 67 nM; the koff amounted to 0.0024 s⁻¹; the kon is 38000 M⁻¹ s⁻¹.

B3: in experiment [5], the dH was -9.87 kcal/mol and the “stoichiometry N” value came out at 1.

B4: GST-BAP1-UCH-WT (1-250 aa) (domain or fragment, human, UniProt Q92560 1-250, looked up)
chain: MNKGWLELESDPGLFTLLVEDFGVKGVQVEEIYDLQSKCQGPVYGFIFLFKWIEERRSRRKVSTLVDDTSVIDDDIVNNMFFAHQLIPNSCATHALLSVLLNCSSVDLGPTLSRMKDFTKGFSPESKGYAIGNAPELAKAHNSHARPEPRHLPEKQNGLSAVRTMEAFHFVSYVPITGRLFELDGLKVYPIDHGPWGEDEEWTDKARRVIMERIGLATAGEPYHDIRFNLMAVVPDRRIKYEARLHVLKV
notes: BAP1, human, ubiquitin C-terminal hydrolase (UCH) domain, residues 1-250 (pGEX-2TK-BAP1-UCH-WT); also called GST-UCH; pGEX-2TK-BAP1-UCH-WT; source: E. coli BL21 (DE3), purified (GST resin, native conditions)
In experiment [6], B4 showed a koff of 0.044 s⁻¹ and a kon of 19000 M⁻¹ s⁻¹.

The term Kd denotes the equilibrium constant for the complex coming apart. Low values mean higher affinity, high ones lower affinity. For orientation: koff means the first-order rate constant of dissociation. Low values mean a long-lived complex, high ones a short-lived complex. The term kon denotes the second-order rate constant of association. Read a high kon as fast association. In general, stoichiometry N refers to a count of units in the complex or per binding partner.
